How the values were obtained:
CD22 (human) = CD22 (human) (UniProt P20273); experiment: cell-based or functional assay
CD74 [1] = target: T1, CD74 (human, UniProt P04233 1-296); experiment: cell binding to antigen-positive cells (cell line not stated)
T1 construct: whole, on cells; Endogenous antigen of human tumor cell lines; measured on the surface or, after permeabilization, surface and cytoplasmic; also called invariant chain; Ii
T1 sequence (looked up): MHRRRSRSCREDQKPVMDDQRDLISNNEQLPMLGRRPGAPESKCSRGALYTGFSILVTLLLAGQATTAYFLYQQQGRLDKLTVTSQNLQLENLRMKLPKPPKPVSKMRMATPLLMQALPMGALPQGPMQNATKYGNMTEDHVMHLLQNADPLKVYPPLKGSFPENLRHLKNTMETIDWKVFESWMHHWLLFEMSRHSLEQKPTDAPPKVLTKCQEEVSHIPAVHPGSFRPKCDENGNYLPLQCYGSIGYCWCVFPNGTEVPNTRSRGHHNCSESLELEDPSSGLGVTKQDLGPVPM

CD74 [2] = target: T1, CD74; experiment: cell-based or functional assay
CD74 [3] = target: T1, CD74; experiment: flow cytometry, surface CD74 on Raji cells
CD74 [4] = target: T1, CD74; experiment: flow cytometry, surface CD74 on A-375 cells
CD74 [5] = target: T1, CD74; experiment: flow cytometry, surface CD74 on HuH-7 cells
CD74 [6] = target: T1, CD74; experiment: flow cytometry, surface CD74 on Hep-G2 cells
CD74 [7] = target: T1, CD74; experiment: flow cytometry, surface CD74 on Hs746T cells
CD74 [8] = target: T1, CD74; experiment: flow cytometry, surface CD74 on Capan-1 cells
CD74 [9] = target: T1, CD74; experiment: flow cytometry, surface CD74 on NCI-N87 cells
CD74 [10] = target: T1, CD74; experiment: flow cytometry, surface and cytoplasmic CD74 in permeabilized Raji cells
CD74 [11] = target: T1, CD74; experiment: flow cytometry, surface and cytoplasmic CD74 in permeabilized A-375 cells
CD74 [12] = target: T1, CD74; experiment: flow cytometry, surface and cytoplasmic CD74 in permeabilized HuH-7 cells
CD74 [13] = target: T1, CD74; experiment: flow cytometry, surface and cytoplasmic CD74 in permeabilized Hep-G2 cells
CD74 [14] = target: T1, CD74; experiment: flow cytometry, surface and cytoplasmic CD74 in permeabilized Hs746T cells
CD74 [15] = target: T1, CD74; experiment: flow cytometry, surface and cytoplasmic CD74 in permeabilized Capan-1 cells
CD74 [16] = target: T1, CD74; experiment: flow cytometry, surface and cytoplasmic CD74 in permeabilized NCI-N87 cells
[17] = target: Human trophoblast cell-surface antigen (TROP-2) (human) (UniProt P09758); experiment: cell-based or functional assay
Sequence of Human trophoblast cell-surface antigen (TROP-2) (human) (P09758 27-323): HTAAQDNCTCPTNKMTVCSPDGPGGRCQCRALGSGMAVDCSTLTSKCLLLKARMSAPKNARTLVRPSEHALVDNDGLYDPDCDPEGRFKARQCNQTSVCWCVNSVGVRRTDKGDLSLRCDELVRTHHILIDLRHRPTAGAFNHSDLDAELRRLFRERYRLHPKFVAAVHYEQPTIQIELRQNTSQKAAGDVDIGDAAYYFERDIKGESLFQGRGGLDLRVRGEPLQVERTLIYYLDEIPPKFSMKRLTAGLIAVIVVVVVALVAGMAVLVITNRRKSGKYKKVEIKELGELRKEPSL

[18] = target: Human trophoblast cell-surface antigen (TROP-2) (human) (UniProt P09758); experiment: cell binding assay on TROP-2-expressing cells
[19] = target: Human trophoblast cell-surface antigen (TROP-2) (human) (UniProt P09758); experiment: FACS on PC-3 cells
[20] = target: Human trophoblast cell-surface antigen (TROP-2) (human) (UniProt P09758); experiment: FACS on BxPC-3 cells
[21] = target: Human trophoblast cell-surface antigen (TROP-2) (human) (UniProt P09758); experiment: FACS on Calu-3 cells
[22] = target: Human trophoblast cell-surface antigen (TROP-2) (human) (UniProt P09758); experiment: FACS on Capan-1 cells
[23] = target: Human trophoblast cell-surface antigen (TROP-2) (human) (UniProt P09758); experiment: FACS on COLO 205 cells
[24] = target: Human trophoblast cell-surface antigen (TROP-2) (human) (UniProt P09758); experiment: FACS on SK-MES-1 cells
[25] = target: Human trophoblast cell-surface antigen (TROP-2) (human) (UniProt P09758); experiment: FACS on PC-3 cells; background 5.5
[26] = target: Human trophoblast cell-surface antigen (TROP-2) (human) (UniProt P09758); experiment: FACS on BxPC-3 cells; background 3.1
[27] = target: Human trophoblast cell-surface antigen (TROP-2) (human) (UniProt P09758); experiment: FACS on Calu-3 cells; background 4.7
[28] = target: Human trophoblast cell-surface antigen (TROP-2) (human) (UniProt P09758); experiment: FACS on Capan-1 cells; background 5.0
[29] = target: Human trophoblast cell-surface antigen (TROP-2) (human) (UniProt P09758); experiment: FACS on COLO 205 cells; background 4.5
[30] = target: Human trophoblast cell-surface antigen (TROP-2) (human) (UniProt P09758); experiment: FACS on SK-MES-1 cells; background 3.5
[31] = target: Human trophoblast cell-surface antigen (TROP-2) (human) (UniProt P09758); experiment: flow cytometry, surface of Capan-1 cells
[32] = target: Human trophoblast cell-surface antigen (TROP-2) (human) (UniProt P09758); experiment: flow cytometry, surface of NCI-N87 cells

## Emab-CL2E-SN-38 (antibody)
CD22 (human)
  in vitro cytotoxicity (MTS assay), potency against the nonbinding control conjugate: 2 fold

## milatuzumab-CL2A-SN-38 (antibody)
CD74 [1]
  Kd: 0.59 nM

## milatuzumab-CL2E-SN-38 (antibody)
CD74 [2]
  in vitro cytotoxicity (MTS assay), potency against free SN-38 in 4 solid tumor cell lines (fold lower potency than free SN-38): 7 to 16
CD74 [1]
  Kd: 0.8 nM

B1: Milatuzumab (antibody, V domains shown)
VH: QVQLQQSGSELKKPGASVKVSCKASGYTFTNYGVNWIKQAPGQGLQWMGWINPNTGEPTFDDDFKGRFAFSLDTSVSTAYLQISSLKADDTAVYFCSRSRGKNEAWFAYWGQGTLVTVSS
VL: DIQLTQSPLSLPVTLGQPASISCRSSQSLVHRNGNTYLHWFQQRPGQSPRLLIYTVSNRFSGVPDRFSGSGSGTDFTLKISRVEAEDVGVYFCSQSSHVPPTFGAGTRLEIK
CD74 [3]
  MFI Ratio hLL1:bkgd: 19.6
CD74 [4]
  MFI Ratio hLL1:bkgd: 5.3
CD74 [5]
  MFI Ratio hLL1:bkgd: 1.6
CD74 [6]
  MFI Ratio hLL1:bkgd: 1.5
CD74 [7]
  MFI Ratio hLL1:bkgd: 2.1
CD74 [8]
  MFI Ratio hLL1:bkgd: 1.8
CD74 [9]
  MFI Ratio hLL1:bkgd: 1.3
CD74 [1]
  Kd: 0.77 nM
CD74 [10]
  MFI Ratio hLL1:bkgd: 28.6
CD74 [11]
  MFI Ratio hLL1:bkgd: 30.8
CD74 [12]
  MFI Ratio hLL1:bkgd: 28.5
CD74 [13]
  MFI Ratio hLL1:bkgd: 31.2
CD74 [14]
  MFI Ratio hLL1:bkgd: 28.8
CD74 [15]
  MFI Ratio hLL1:bkgd: 49.6
CD74 [16]
  MFI Ratio hLL1:bkgd: 36.7

B2: hRS7-CL2A-SN-38 (antibody, INN chains, looked up, V domains shown, part only)
VH: QVQLQQSGSELKKPGASVKVSCKASGYTFTNYGMNWVKQAPGQGLKWMGWINTYTGEPTYTDDFKGRFAFSLDTSVSTAYLQISSLKADDTAVYFCARGGFGSSYWYFDVWGQGSLVTVSS
VL: DIQLTQSPSSLSASVGDRVSITCKASQDVSIAVAWYQQKPGKAPKLLIYSASYRYTGVPDRFSGSGSGTDFTLTISSLQPEDFAVYYCQQHYITPLTFGAGTKVEIK
modifications: SN-38 via CL2A linker (sacituzumab govitecan)
[17]
  ADC/free SN-38 ratio (IC50, in vitro cytotoxicity), Calu-3: 1.39
  ADC/free SN-38 ratio (IC50, in vitro cytotoxicity), SK-MES-1: 2.69
[18]
  Kd: 1.2 nM

B3: hRS7-CL2-SN-38 (antibody, INN chains, looked up, V domains shown, part only)
VH: QVQLQQSGSELKKPGASVKVSCKASGYTFTNYGMNWVKQAPGQGLKWMGWINTYTGEPTYTDDFKGRFAFSLDTSVSTAYLQISSLKADDTAVYFCARGGFGSSYWYFDVWGQGSLVTVSS
VL: DIQLTQSPSSLSASVGDRVSITCKASQDVSIAVAWYQQKPGKAPKLLIYSASYRYTGVPDRFSGSGSGTDFTLTISSLQPEDFAVYYCQQHYITPLTFGAGTKVEIK
modifications: SN-38 via CL2 linker
[18]
  Kd: 1.2 nM

B4: Humanized RS7 IgG (antibody, INN chains, looked up, V domains shown, part only)
VH: QVQLQQSGSELKKPGASVKVSCKASGYTFTNYGMNWVKQAPGQGLKWMGWINTYTGEPTYTDDFKGRFAFSLDTSVSTAYLQISSLKADDTAVYFCARGGFGSSYWYFDVWGQGSLVTVSS
VL: DIQLTQSPSSLSASVGDRVSITCKASQDVSIAVAWYQQKPGKAPKLLIYSASYRYTGVPDRFSGSGSGTDFTLTISSLQPEDFAVYYCQQHYITPLTFGAGTKVEIK
modifications: IgG1
[19]
  Percent positive: 73.6%
[20]
  Percent positive: 98.3%
[21]
  Percent positive: 99.6%
[22]
  Percent positive: 94.2%
[23]
  Percent positive: 99.5%
[24]
  Percent positive: 91.2%
[25]
  Median fluorescence: 46.2
[26]
  Median fluorescence: 26.4
[27]
  Median fluorescence: 282
[28]
  Median fluorescence: 100
[29]
  Median fluorescence: 142
[30]
  Median fluorescence: 44
[31]
  MFI: 237
[32]
  MFI: 795

— EP3024460B1 (Immunomedics, Inc., dated 2020)
